From patent US20220153854A1 (Ablynx, published 2022)

Experiments:
human serum albumin [1] = molecular target: T1, human serum albumin (human, UniProt P02768 25-609); assay: Gyrolab in-solution affinity, 2 h incubation; 95% CI 6.7-8.9 nM
T1 construct: also called HSA; HAS
Description: (§1) Under receptor-controlled measurements a serial dilution of OX40L (ranging from 1.3 μM-0.031 μM), IL-13 (ranging from 0.1 μM-0.25 fM), or serum albumin (ranging from 100 μM-3.2 μM) and a fixed amount of ISVD construct F027100187 (5 nM in case of OX40L, […] in case of IL-13 and 30 nM in case of HSA and cyno SA) were mixed to allow interaction and incubated for either 24 or 48 hours (in case of OX40L and IL-13) or 2 hours (in case of serum albumin) to reach equilibrium.
(§2) Biotinylated human OX40L/IL-13/serum albumin was captured in the microstructures of a Gyrolab Bioaffy 1000 CD, which contains columns of beads and was used as a molecular probe to capture free F027100187 from the equilibrated solution. The mixture of OX40L/IL13/serum albumin and F027100187 (containing free OX40UIL-13/serum albumin, free F027100187 and OX40L/IL13/serum albumin—F027100187 complexes) was allowed to flow through the beads, and a small percentage of free F027100187 was captured, which is proportional to the free ISVD construct concentration. A fluorescently labeled anti-ISVD antibody, ABH0086-Alexa647, was then injected to label any captured F027100187 and after rinsing away excess of fluorescent probe, the change in fluorescence was determined. Fitting of the dilution series was done using Gyrolab Analysis software, where KD- and receptor-controlled curves were analyzed to determine the KD value.

cyno OX40L = molecular target: T2, cyno OX40L (cynomolgus monkey, UniProt G7NVH7 51-183); assay: Gyrolab in-solution affinity, 48 h incubation; 95% CI 225-326 pM
T2 construct: also called cyOX40L; cynomolgus monkey OX40L
T2 sequence: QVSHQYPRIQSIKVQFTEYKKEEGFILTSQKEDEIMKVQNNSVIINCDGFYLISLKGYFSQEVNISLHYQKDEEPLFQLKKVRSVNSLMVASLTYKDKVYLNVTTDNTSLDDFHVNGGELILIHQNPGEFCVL
Description: as §1, §2

human serum albumin [2] = molecular target: T1, human serum albumin; assay: Gyrolab in-solution affinity, 2 h incubation; 95% CI 7.7-9.0 nM
Description: as §1, §2

cyno IL-13 = molecular target: T3, cyno IL-13 (cynomolgus monkey, UniProt Q0PW92 21-132); assay: Gyrolab in-solution affinity, 48 h incubation; 95% CI 7.0-9.3 pM
T3 construct: also called cynomolgus monkey IL-13
T3 sequence (Q0PW92 entry or part of it): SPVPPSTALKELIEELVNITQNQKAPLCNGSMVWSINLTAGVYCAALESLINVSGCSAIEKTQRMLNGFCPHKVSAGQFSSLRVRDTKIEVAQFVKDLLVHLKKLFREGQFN
Description: as §1, §2

T1 sequence (P02768 25-609 limits assumed): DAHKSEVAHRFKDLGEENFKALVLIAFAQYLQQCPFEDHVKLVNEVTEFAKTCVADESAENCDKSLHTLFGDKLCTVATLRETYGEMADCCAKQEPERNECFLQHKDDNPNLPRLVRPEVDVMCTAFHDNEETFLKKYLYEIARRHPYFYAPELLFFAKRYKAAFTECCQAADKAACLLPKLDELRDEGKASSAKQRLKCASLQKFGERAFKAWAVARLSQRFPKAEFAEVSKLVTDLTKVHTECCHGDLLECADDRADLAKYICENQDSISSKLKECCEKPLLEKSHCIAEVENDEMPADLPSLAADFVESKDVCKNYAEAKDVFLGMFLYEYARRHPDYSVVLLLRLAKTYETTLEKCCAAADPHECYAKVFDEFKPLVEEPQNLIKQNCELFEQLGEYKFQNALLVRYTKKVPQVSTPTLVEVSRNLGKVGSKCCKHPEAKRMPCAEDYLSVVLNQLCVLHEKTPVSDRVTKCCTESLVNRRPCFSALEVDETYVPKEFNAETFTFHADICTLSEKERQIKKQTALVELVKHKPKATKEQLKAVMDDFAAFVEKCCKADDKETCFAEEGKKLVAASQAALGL

Kd (human serum albumin [1]): 7.8 nM | Kd (cyno OX40L): 0.275 nM | Kd (human serum albumin [2]): 8.3 nM | Kd (cyno IL-13): 0.0082 nM
B1: ISVD construct F027100187 (other)
chain: DVQLVESGGGVVQPGGSLRLSCAASRSIGRYDRMGWYRHRPGEPRELVATITGGSSINYGDSVKGRFTISIDNSKNTVYLQMNSLRPEDTALYYCNFNKYQISRDTWGQGTLVTVSSGGGGSGGGSEVQLVESGGGVVQPGGSLRLSCAASGRTFSSYRMGWFRQAPGKEREFVAALSGDGYSTYTANSVKGRFTISRDNSKNTVYLQMNSLRPEDTALYYCAAKLQYVSGWSYDYPYWGQGTLVTVSSGGGGSGGGSEVQLVESGGGVVQPGGSLRLSCAASGFTFRSFGMSWVRQAPGKGPEWVSSISGSGSDTLYADSVKGRFTISRDNSKNTLYLQMNSLRPEDTALYYCTIGGSLSRSSQGTLVTVSSGGGGSGGGSEVQLVESGGGVVQPGGSLRLSCAASGFTFNNYAMKWVRQAPGKGLEWVSSITTGGGSTDYADSVKGRFTISRDNSKNTLYLQMNSLRPEDTALYYCANVPFGYYSEHFSGLSFDYRGQGTLVTVSSA
notes: Tetravalent, trispecific single-chain construct of four VHH (ISVD) domains: one against OX40L, two against IL-13, one against serum albumin; also called F0271000187; F27100187
